Laboratory results: article PMC11286877

Biological target: OLFM4 recombinant protein (SPR) (UniProt Q3UZZ4)
Test: SPR

Chain of UniProt Q3UZZ4 (Q3UZZ4 19-505): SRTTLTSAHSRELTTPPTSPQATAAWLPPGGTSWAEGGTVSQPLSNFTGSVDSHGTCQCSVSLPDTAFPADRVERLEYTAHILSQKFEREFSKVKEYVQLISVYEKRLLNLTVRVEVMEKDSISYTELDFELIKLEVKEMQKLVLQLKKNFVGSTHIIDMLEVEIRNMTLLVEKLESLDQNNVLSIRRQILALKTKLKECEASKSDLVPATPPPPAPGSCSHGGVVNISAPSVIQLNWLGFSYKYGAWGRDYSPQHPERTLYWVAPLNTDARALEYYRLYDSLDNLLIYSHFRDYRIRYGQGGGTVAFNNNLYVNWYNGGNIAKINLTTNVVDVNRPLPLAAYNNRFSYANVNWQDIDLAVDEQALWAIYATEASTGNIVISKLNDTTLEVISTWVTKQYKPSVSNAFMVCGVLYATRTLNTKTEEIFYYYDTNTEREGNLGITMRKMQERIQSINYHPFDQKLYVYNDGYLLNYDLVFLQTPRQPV

With “MTDH protein, extracellular domain (SPR) (from UniProt Q80WJ7 1-48) (domain or fragment)” the Kd was 0.0219 nM.
